In publication PMC9482650, “Quantitative fragmentomics allow affinity mapping of interactomes” (Nature Communications, 2022):
Residue numbers refer to the chain shown, from its start.

T1: APBA1_1, Q02410
T1 sequence (Q02410 651-752, limits assumed, looked up): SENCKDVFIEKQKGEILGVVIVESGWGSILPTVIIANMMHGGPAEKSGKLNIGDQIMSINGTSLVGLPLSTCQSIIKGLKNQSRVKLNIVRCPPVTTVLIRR

T2: APBA1_2, Q02410
T2 sequence (Q02410 742-832, limits assumed, looked up): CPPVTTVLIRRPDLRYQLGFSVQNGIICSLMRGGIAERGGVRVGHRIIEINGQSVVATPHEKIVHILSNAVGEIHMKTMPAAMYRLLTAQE

T3: APBA2_2, Q99767
T3 sequence (Q99767 654-744, limits assumed, looked up): T2 sequence (Q02410 742-832, limits assumed, looked up) with R10K, R15K, P59A, H65Q, I66A, A70S, Y84F, A89G

T4: FRMPD1, Q5SYB0
T4 sequence (Q5SYB0 52-145, limits assumed, looked up): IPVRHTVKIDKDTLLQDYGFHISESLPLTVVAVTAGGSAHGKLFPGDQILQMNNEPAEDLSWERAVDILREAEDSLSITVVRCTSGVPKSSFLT

T5: GRIP1_4, Q9Y3R0
T5 sequence (Q9Y3R0 467-571, limits assumed, looked up): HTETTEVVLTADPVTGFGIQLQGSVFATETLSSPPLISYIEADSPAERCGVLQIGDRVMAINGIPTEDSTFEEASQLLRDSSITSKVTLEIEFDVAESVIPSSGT

T6: GRIP1_5, Q9Y3R0
T6 sequence (Q9Y3R0 568-668, limits assumed, looked up): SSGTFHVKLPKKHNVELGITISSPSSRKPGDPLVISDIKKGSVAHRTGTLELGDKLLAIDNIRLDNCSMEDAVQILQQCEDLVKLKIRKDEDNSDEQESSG

T7: HTRA4, P83105
T7 sequence (P83105 378-476, limits assumed, looked up): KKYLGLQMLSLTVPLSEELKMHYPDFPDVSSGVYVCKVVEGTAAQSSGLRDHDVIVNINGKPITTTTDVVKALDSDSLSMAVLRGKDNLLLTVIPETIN

T8: LIN7B, Q9HAP6
T8 sequence (Q9HAP6 88-185, limits assumed, looked up): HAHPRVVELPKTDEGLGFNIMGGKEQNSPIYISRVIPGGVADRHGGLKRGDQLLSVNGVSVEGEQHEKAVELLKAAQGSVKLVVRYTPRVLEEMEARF

T9: NHERF3_1, Q5T2W1
T9 sequence (Q5T2W1 4-100, limits assumed, looked up): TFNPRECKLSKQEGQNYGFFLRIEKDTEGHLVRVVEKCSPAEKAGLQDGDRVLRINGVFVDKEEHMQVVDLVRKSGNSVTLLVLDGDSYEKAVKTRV

T10: NHERF3_3, Q5T2W1
T10 sequence (Q5T2W1 238-333, limits assumed, looked up): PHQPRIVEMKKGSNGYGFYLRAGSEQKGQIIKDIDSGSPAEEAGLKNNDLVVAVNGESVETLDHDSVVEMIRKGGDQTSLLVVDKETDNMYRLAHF

T11: RAPGEF6, Q8TEU7
T11 sequence (Q8TEU7 525-625, limits assumed, looked up): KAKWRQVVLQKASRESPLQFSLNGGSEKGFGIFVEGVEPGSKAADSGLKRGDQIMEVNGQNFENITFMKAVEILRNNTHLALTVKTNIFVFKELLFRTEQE

T12: SNTB1, Q13884
T12 sequence (Q13884 107-205, limits assumed, looked up): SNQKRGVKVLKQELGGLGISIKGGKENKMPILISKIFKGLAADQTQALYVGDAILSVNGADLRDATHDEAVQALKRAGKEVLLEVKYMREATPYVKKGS


Key:
Assay in all cases: holdup assay
Set-up in all cases: key: below the threshold = too weak to quantify, mostly under pKd 3.1 to 4
Conditions in all cases: plain residues with an end cap or a label only (N-terminal biotin on a linker: ado-ado)
APBA1_1, Q02410 = target: T1, APBA1_1, Q02410
APBA1_2, Q02410 = target: T2, APBA1_2, Q02410
APBA2_2, Q99767 = target: T3, APBA2_2, Q99767
DLG1_1, Q12959 = target: DLG1_1, Q12959
DLG2_3, Q15700 = target: DLG2_3, Q15700
DLG4_1, P78352 = target: DLG4_1, P78352
FRMPD1, Q5SYB0 = target: T4, FRMPD1, Q5SYB0
FRMPD3, Q5JV73 = target: FRMPD3, Q5JV73
GOPC, Q9HD26 = target: GOPC, Q9HD26
GORASP2, Q9H8Y8 = target: GORASP2, Q9H8Y8
GRASP, Q7Z6J2 = target: GRASP, Q7Z6J2
GRIP1_4, Q9Y3R0 = target: T5, GRIP1_4, Q9Y3R0
GRIP1_5, Q9Y3R0 = target: T6, GRIP1_5, Q9Y3R0
GRIP2_6, Q9C0E4 = target: GRIP2_6, Q9C0E4
HTRA4, P83105 = target: T7, HTRA4, P83105
Inadl_6, Q8NI35 = target: Inadl_6, Q8NI35
LAP2, Q96RT1 = target: LAP2, Q96RT1
LDB3, O75112 = target: LDB3, O75112
LIN7B, Q9HAP6 = target: T8, LIN7B, Q9HAP6
MAGI2_2, Q86UL8 = target: MAGI2_2, Q86UL8
MAST1, Q9Y2H9 = target: MAST1, Q9Y2H9
NHERF3_1, Q5T2W1 = target: T9, NHERF3_1, Q5T2W1
NHERF3_3, Q5T2W1 = target: T10, NHERF3_3, Q5T2W1
PARD3_3, Q8TEW0 = target: PARD3_3, Q8TEW0
RAPGEF6, Q8TEU7 = target: T11, RAPGEF6, Q8TEU7
SNTB1, Q13884 = target: T12, SNTB1, Q13884

Chain of PARD3_3, Q8TEW0 (Q8TEW0 582-685): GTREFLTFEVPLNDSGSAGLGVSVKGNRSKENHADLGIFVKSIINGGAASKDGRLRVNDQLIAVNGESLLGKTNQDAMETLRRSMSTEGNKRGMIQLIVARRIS
Chain of FRMPD3, Q5JV73 (Q5JV73 12-100): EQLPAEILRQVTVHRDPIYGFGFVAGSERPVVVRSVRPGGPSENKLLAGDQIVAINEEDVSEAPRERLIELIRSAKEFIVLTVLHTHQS
Chain of Inadl_6, Q8NI35 (Q8NI35 1058-1167): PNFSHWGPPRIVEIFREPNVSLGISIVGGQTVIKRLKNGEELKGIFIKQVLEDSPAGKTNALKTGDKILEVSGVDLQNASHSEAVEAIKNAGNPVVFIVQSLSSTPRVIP
Chain of GRIP2_6, Q9C0E4 (Q9C0E4 648-740): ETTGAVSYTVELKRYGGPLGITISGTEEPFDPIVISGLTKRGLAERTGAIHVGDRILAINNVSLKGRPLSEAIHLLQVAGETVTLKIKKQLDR
Chain of LDB3, O75112 (O75112 1-94): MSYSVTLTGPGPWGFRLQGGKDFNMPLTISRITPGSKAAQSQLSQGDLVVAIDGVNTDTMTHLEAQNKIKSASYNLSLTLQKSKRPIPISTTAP
Chain of MAGI2_2, Q86UL8 (Q86UL8 410-522): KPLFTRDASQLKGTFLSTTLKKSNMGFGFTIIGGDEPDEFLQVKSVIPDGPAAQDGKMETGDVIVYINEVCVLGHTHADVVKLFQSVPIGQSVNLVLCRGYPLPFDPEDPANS
Chain of MAST1, Q9Y2H9 (Q9Y2H9 962-1065): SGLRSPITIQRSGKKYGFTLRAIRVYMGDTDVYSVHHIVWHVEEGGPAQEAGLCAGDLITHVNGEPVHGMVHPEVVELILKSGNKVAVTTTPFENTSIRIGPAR
Chain of LAP2, Q96RT1 (Q96RT1 other isoform, or with tags, fused parts or gaps): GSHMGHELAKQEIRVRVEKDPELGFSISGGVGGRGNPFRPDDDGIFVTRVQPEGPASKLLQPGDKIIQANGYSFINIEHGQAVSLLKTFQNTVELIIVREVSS
Chain of DLG4_1, P78352 (P78352 62-152): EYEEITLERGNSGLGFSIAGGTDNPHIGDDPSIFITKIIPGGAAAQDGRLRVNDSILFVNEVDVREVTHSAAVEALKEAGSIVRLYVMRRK
Chain of GRASP, Q7Z6J2 (Q7Z6J2 96-193): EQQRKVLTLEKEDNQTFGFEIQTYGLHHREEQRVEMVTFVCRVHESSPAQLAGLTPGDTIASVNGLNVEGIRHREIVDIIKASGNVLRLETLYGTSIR

Row | Binder | pKd (APBA1_1, Q02410) | pKd (APBA1_2, Q02410) | pKd (APBA2_2, Q99767) | pKd (DLG1_1, Q12959) | pKd (DLG2_3, Q15700) | pKd (DLG4_1, P78352) | pKd (FRMPD1, Q5SYB0) | pKd (FRMPD3, Q5JV73) | pKd (GOPC, Q9HD26) | pKd (GORASP2, Q9H8Y8) | pKd (GRASP, Q7Z6J2) | pKd (GRIP1_4, Q9Y3R0) | pKd (GRIP1_5, Q9Y3R0) | pKd (GRIP2_6, Q9C0E4) | pKd (HTRA4, P83105) | pKd (Inadl_6, Q8NI35) | pKd (LAP2, Q96RT1) | pKd (LDB3, O75112) | pKd (LIN7B, Q9HAP6) | pKd (MAGI2_2, Q86UL8) | other results
1 | GCQGETEDVL [PTH2R, P49190] | below the threshold | 3.52 | below the threshold | below the threshold | below the threshold | 3.51 | below the threshold | below the threshold | below the threshold | below the threshold | 3.62 | below the threshold | below the threshold | below the threshold | below the threshold | below the threshold | below the threshold | below the threshold | below the threshold | below the threshold | pKd (MAST1, Q9Y2H9): 3.92; pKd (NHERF3_1, Q5T2W1): 3.98; pKd (NHERF3_3, Q5T2W1): below the threshold; pKd (PARD3_3, Q8TEW0): 4.32; pKd (RAPGEF6, Q8TEU7): below the threshold; pKd (SNTB1, Q13884): below the threshold
2 | SRPRPDDLEI [GJA1, P17302] | below the threshold | below the threshold | below the threshold | below the threshold | below the threshold | below the threshold | below the threshold | below the threshold | below the threshold | below the threshold | below the threshold | below the threshold | below the threshold | below the threshold | below the threshold | below the threshold | below the threshold | below the threshold | below the threshold | below the threshold | pKd (MAST1, Q9Y2H9): below the threshold; pKd (NHERF3_1, Q5T2W1): below the threshold; pKd (NHERF3_3, Q5T2W1): below the threshold; pKd (PARD3_3, Q8TEW0): 3.74; pKd (RAPGEF6, Q8TEU7): below the threshold; pKd (SNTB1, Q13884): below the threshold
3 | PMESGICTIV [TTC24, A2A3L6] | below the threshold | 4.75 | below the threshold | 4.79 | below the threshold | 4.71 | below the threshold | below the threshold | 4.4 | 4.64 | 4.65 | below the threshold | below the threshold | below the threshold | 4.77 | 4 | below the threshold | below the threshold | below the threshold | 4.11 | pKd (MAST1, Q9Y2H9): 4.74; pKd (NHERF3_1, Q5T2W1): 4.02; pKd (NHERF3_3, Q5T2W1): below the threshold; pKd (PARD3_3, Q8TEW0): 4.29; pKd (RAPGEF6, Q8TEU7): below the threshold; pKd (SNTB1, Q13884): 4.58

More lines, main results first:

Row | pKd (APBA1_1, Q02410) | pKd (APBA1_2, Q02410) | pKd (APBA2_2, Q99767) | pKd (DLG1_1, Q12959) | pKd (DLG2_3, Q15700) | pKd (DLG4_1, P78352) | pKd (FRMPD1, Q5SYB0) | pKd (FRMPD3, Q5JV73) | pKd (GOPC, Q9HD26) | pKd (GORASP2, Q9H8Y8) | pKd (GRASP, Q7Z6J2) | pKd (GRIP1_4, Q9Y3R0) | pKd (GRIP1_5, Q9Y3R0) | pKd (GRIP2_6, Q9C0E4) | pKd (HTRA4, P83105) | pKd (Inadl_6, Q8NI35) | pKd (LAP2, Q96RT1) | pKd (LDB3, O75112) | pKd (LIN7B, Q9HAP6) | pKd (MAGI2_2, Q86UL8) | Binder | other results
4 | below the threshold | below the threshold | below the threshold | below the threshold | 3.48 | below the threshold | below the threshold | below the threshold | 4.93 | below the threshold | 4.68 | below the threshold | below the threshold | below the threshold | 3.7 | below the threshold | below the threshold | below the threshold | 3.47 | below the threshold | ANGLMQTSKL [SSTR5, P35346] | pKd (MAST1, Q9Y2H9): 4.63; pKd (NHERF3_1, Q5T2W1): 5.15; pKd (NHERF3_3, Q5T2W1): 3.81; pKd (PARD3_3, Q8TEW0): below the threshold; pKd (RAPGEF6, Q8TEU7): below the threshold; pKd (SNTB1, Q13884): below the threshold
5 | below the threshold | below the threshold | below the threshold | below the threshold | below the threshold | below the threshold | below the threshold | below the threshold | below the threshold | 3.51 | below the threshold | below the threshold | below the threshold | below the threshold | 4 | below the threshold | below the threshold | below the threshold | below the threshold | below the threshold | NVYGTESVKI [GRIA3, P42263] | pKd (MAST1, Q9Y2H9): 3.93; pKd (NHERF3_1, Q5T2W1): below the threshold; pKd (NHERF3_3, Q5T2W1): below the threshold; pKd (PARD3_3, Q8TEW0): 3.73; pKd (RAPGEF6, Q8TEU7): below the threshold; pKd (SNTB1, Q13884): below the threshold
